One assay has as its system LY-A cell. Kind of assay: recovery of ceramide transport function of LY-A cell by hCERT stable expression. The class given is cell-based, Chinese hamster. The settings on record: FIG. 9. The source says: Also in the original LY-A cell to which retrovirus receptor has not been introduced, it has been ascertained as described below that ceramide transport function is recovered by hCERT expression. hCERT inserted pcDNA3.1/Neo plasmid was introduced into LY-A cell by performing lipofection, after G418 resistant cell was selected, transformed strain LY-A/hCERT was purified by a limited-dilution. Subsequently, the measurement of the sensitivity to MCD, metabolism labeling experiment of lipid using [^14C] serine and [^14C] choline and cell labeling using C5-DMB-Cer and fluorescene microscopy observation were similarly performed.

Assay [1] concerns LY-A2 cell. In words: content of phospholipids of cell. The class given is cell-based, Chinese hamster. The settings on record: LY-A2/hCERT cell, FIG. 3(B). Here is the method: 3×10^6 cells per culture dish having the 150-mm diameter of CHO-K1 cell, LY-A2 cell, or LY-A2/hCERT cell was inoculated in 20 mL of F12/NBS medium, and cultured at 33° C. overnight. After it was washed twice in 10 mL of serum-free F12 medium, it was further cultured for 2 days in 20 mL of Nutridoma BO medium. After it was washed in PBS, the cells were collected by a method of scaping, suspended again in PBS, and lipid was extracted by a method described in Bligh et al (Can. J. Biochem. Physiol. 37, 911-917, 1959). The extracted lipid was separated using TLC whose development solvents were chloroform/methanol/acetic acid/H2O (volume ratio, 25:15:4:2). After the separated phospholipid on the TLC plate was colored by iodine vapor, the band of the respective separated phospholipid was scraped out from the plate. The scraped separated phospholipid was quantified by measuring phosphorus content by a method of Rouser et al (Lipids 1, 85-86, 1966).

Assay [2] concerns LY-A2 cell. In words: cell labeling using C5-DMB-Cer and fluorescence microscopy (ER to Golgi apparatus). The format is cell-based, Chinese hamster. The settings on record: C5-DMB-Cer, traced at 33° C. 15 minutes, LY-A2/hCERT, FIG. 6. Here is the method: The present inventors have already made it clear that the activity of ATP dependent transport from the endoplasmic reticulum of natural ceramide (hereinafter, also referred to as ER) to Golgi apparatus can be qualitatively evaluated from the analysis of reallocation from ER of C5-DMB-Cer which is a fluorescent ceramide analogue to Golgi apparatus (J. Cell Biol. 144,673-685, 1999). As described in detail, the cell was exposed to C5-DMB-Cer at 4° C. for 30 minutes for the purpose of performing the pulse labeling of a variety of organelle membranes within a cell containing ER, after washing, it was traced at 33° C. for 15 minutes by a fluorescene microscopy observation method. A method of performing cell labeling using C5-DMB-Cer and a method of performing an observation by a fluorescence microscopy were carried out by a method of Yasuda et al (J. Biol. Chem. 276, 43994-44002, 2001) and a method of Fukasawa et al (J. Cell Biol. 144, 673-685, 1999). Specifically, after CHO-K1 cell, LY-A2 cell and LY-A2/hCERT cell grown on a coverslip made of glass were treated at 4° C. for 30 minutes in F12 medium containing 1 micro-M C5-DMB-Cer, it was washed three times in 1 mL of F12 medium. […] The sample was observed under the fluorescence microscopy immediately after it has been fixed and photographed with a digital CCD camera.

In another assay the test system is SM synthase. In words: SM synthase activity, C6-NBD-Cer substrate, membrane fractions. Conditions: LY-A2/hCERT versus LY-A2 and CHO-K1 cells, FIG. 5. The class given is biochemical, Chinese hamster. As to the method:
The assay of SM synthase activity was carried out using C6—NBD-Cer as a substrate by a method of Hanada et al (Biochim. Biophys. Acta 1086, 151-156, 1991). However, the membrane fractions prepared respectively from CHO-K1 cell, LY-A2 cell and LY-A2/hCERT cell were used as an enzyme source.

B1: hCERT protein: human CERT protein having an amino acid sequence of SEQ ID NO:1 (protein)
chain: MSDNQSWNSSGSEEDPETESGPPVERCGVLSKWTNYIHGWQDRWVVLKNNALSYYKSEDETEYGCRGSICLSKAVITPHDFDECRFDISVNDSVWYLRAQDPDHRQQWIDAIEQHKTESGYGSESSLRRHGSMVSLVSGASGYSATSTSSFKKGHSLREKLAEMETFRDILCRQVDTLQKYFDACADAVSKDELQRDKVVEDDEDDFPTTRSDGDFLHSTNGNKEKLFPHVTPKGINGIDFKGEAITFKATTAGILATLSHCIELMVKREDSWQKRLDKETEKKRRTEEAYKNAMTELKKKSHFGGPDYEEGPNSLINEEEFFDAVEAALDRQDKIEEQSQSEKVRLHWPTSLPSGDAFSSVGTHRFVQKVEEMVQNHMTYSLQDVGGDANWQLVVEEGEMKVYRREVEENGIVLDPLKATHAVKGVTGHEVCNYFWNVDVRNDWETTIENFHVVETLADNAIIIYQTHKRVWPASQRDVLYLSVIRKIPALTENDPETWIVCNFSVDHDSAPLNNRCVRAKINVAMICQTLVSPPEGNQEISRDNILCKITYVANVNPGGWAPASVLRAVAKREYPKFLKRFTSYVQEKTAGKPILF
modifications: HeLa cell
In the case of B1, in the assay on LY-A cell, the “reactivity with respect to MCD, SM biosynthesis, C5-DMB-Cer transfer from ER to Golgi apparatus region” value is “recovered to the nature of the wild type”. Moreover, the SM content entry in the assay with LY-A2 cell [1] is “recovered to the wild type level”. The “accumulation of DMB fluorescence to Golgi apparatus region” value in the assay on LY-A2 cell [2] is “accumulation comparable to CHO-K1 cell”. In addition, the “activity of the SM synthase” value with SM synthase is “no difference”.

The record behind these values is US20080085859A1, “Drug Promoting Ceramide Transport, Base Sequence for Producing the Drug, Method of Measuring Activity of Promoting Ceramide Release and Method of Measuring Activity of Promoting Intermembrane Ceramide Transfer” (JAPAN SCIENCE AND TECHNOLOGY AGENCY, priority 2003, published 2008).
